Test results: publication PMC10201443, “Site-directed biochemical analyses reveal that the switchable C-terminus of Rpc31 contributes to RNA polymerase III transcription initiation” (Nucleic Acids Research, 2022)
Positions count from the first letter of the chain named. In names and notes the source's numbering stands.

T1: Rpc31(aa 121–251)_Flag_ΔS151-G164 (S. cerevisiae, UniProt P17890 121-251, ΔS151-G164)
T1 sequence: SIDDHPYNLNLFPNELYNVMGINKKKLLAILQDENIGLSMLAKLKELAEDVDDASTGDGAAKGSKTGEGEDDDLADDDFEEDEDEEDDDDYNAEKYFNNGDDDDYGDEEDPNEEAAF

T2: Full-length Rpc34 protein with an N-terminal V5 epitope tag, Alexa 647-labeled (S. cerevisiae, UniProt P32910 1-317, Alexa Fluor 647 NHS Ester label (labeling efficiency ~0.8))
T2 construct: Rpc34 of S. cerevisiae, full-length protein; also called Alexa647-labeled Rpc34; fluorescently-labeled Rpc34 protein; source: E. coli BL21 (DE3) RIL, purified (Ni-Sepharose, SUMO tag removed with Ulp1, second Ni-Sepharose passage)
T2 sequence (looked up): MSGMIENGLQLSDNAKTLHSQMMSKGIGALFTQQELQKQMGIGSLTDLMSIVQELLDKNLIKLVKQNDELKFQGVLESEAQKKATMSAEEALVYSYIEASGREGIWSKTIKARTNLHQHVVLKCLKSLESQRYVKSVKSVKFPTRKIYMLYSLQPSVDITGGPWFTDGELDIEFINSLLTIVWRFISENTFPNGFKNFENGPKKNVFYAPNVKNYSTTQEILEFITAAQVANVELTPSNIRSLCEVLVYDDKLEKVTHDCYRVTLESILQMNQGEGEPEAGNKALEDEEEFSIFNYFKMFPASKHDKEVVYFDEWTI

B1: Full-length Rpc34 protein with an N-terminal V5 epitope tag, Alexa 647-labeled (natural protein)
chain: T2 sequence (looked up)
modifications: Alexa Fluor 647 NHS Ester label (labeling efficiency ~0.8)
B2: Rpc31(121-251)-Flag_ΔL165-V185 (protein)
chain: SIDDHPYNLNLFPNELYNVMGINKKKLLAISKFNNADDVFTGTGDDASTGDGAAKGSKTGEGEDDDLADDDFEEDEDEEDDDDYNAEKYFNNGDDDDYGDEEDPNEEAAF
B3: Rpc31(aa 121–251)_Flag (domain or fragment, S. cerevisiae, UniProt P17890 121-251, looked up)
chain: SIDDHPYNLNLFPNELYNVMGINKKKLLAISKFNNADDVFTGTGLQDENIGLSMLAKLKELAEDVDDASTGDGAAKGSKTGEGEDDDLADDDFEEDEDEEDDDDYNAEKYFNNGDDDDYGDEEDPNEEAAF
notes: Rpc31 of S. cerevisiae, C-terminal aa 121-251; also called Rpc31 C-terminal Ser121-Phe251 peptide; Rpc31 (aa 121–251) peptide; source: E. coli BL21 (DE3) RIL, purified (Ni-Sepharose, SUMO tag removed with Ulp1, second Ni-Sepharose passage, Source15Q); not shown: FLAG, C-terminal, kept
B4: Rpc31(aa 121–251)_Flag_E183K (domain or fragment, S. cerevisiae, UniProt P17890 121-251, looked up)
chain: B3 chain with E63K
notes: Rpc31 of S. cerevisiae, C-terminal aa 121-251 with E183K; the methods describe only the wild-type construct; also called Rpc31 peptide with a Glu183Lys (E183K) point mutation; source: E. coli, recombinantly expressed and purified; not shown: FLAG, C-terminal, kept
B5: Rpc31(121-251)-Flag_ΔG141-I150 (protein)
chain: SIDDHPYNLNLFPNELYNVMSKFNNADDVFTGTGLQDENIGLSMLAKLKELAEDVDDASTGDGAAKGSKTGEGEDDDLADDDFEEDEDEEDDDDYNAEKYFNNGDDDDYGDEEDPNEEAAF

Assays:
[1] = biological target: T1, Rpc31(aa 121–251)_Flag_ΔS151-G164; test: MST
[2] = biological target: B1; test: MST
[3] = biological target: T2, Full-length Rpc34 protein with an …; test: MST; Alexa647-labeled Rpc34 constant at 5 nM, unlabeled Rpc31 peptides titrated (WT 1.16 μM to 0.000035 μM); 5 mM sodium phosphate pH 8.0, 0.05% Tween 20; 25°C; MST-on time 5 s; three independent measurements; conditions: both partners purified

| Kd [2] | Kd [3] | Binder | further results |
| --- | --- | --- | --- |
| – | – | B1 | Kd [1]: 6.1 µM |
| 1.2 µM | – | B2 | – |
| – | 0.883 ± 0.339 µM | B3 | – |
| – | 8.5 ± 5.6 µM | B4 | – |
| 4.4 µM | – | B5 | – |
